Data from patent publication US20100047245A1 (AbbVie / Abbott, published 2010).
Positions count from the first letter of the chain named.

B1: 1D4-Chim (antibody, human IgG1, V domains shown)
VH: QVTLKESGPGILQPSQTLSLTCSFSGFSLRKSVMGVSWIRQPSGKGLEWLAHIYWDDDKYYNPSLKSRLTISKDPSRNQVFLKITSVDTADAATYYCTRRGIRSAMDYWGQGTSVTVSS
VL: SVVMTQTPKFLLVSAGDRVTITCKASQSVSNDVAWYQQKPGQSPKLLIYYASNRYTGVPDRFTGSGYGTDFTFIISTVRAEDLAVYFCQQDYNSPWTFGGGTKLEIKR
B2: 3G7-Chim (antibody, human IgG1, V domains shown)
VH: QVQLQQSGAELMKPGASVKISCKATGYTFNDYWIEWVKQRPGHGLEWIGGFSHGSGSTNYNEKFKGKATFTADSSSNTAYMQLSSLTSEDSAVYYCARRRFRGMDYWGQGTSVTVSS
VL: B1 VL with V2I, I74T, S76T, R79Q, N93S, T97S
B3: 1A6-Chim (antibody, human IgG1, V domains shown)
VH: QVTLKESGPGILKPSQTLSLTCSFSGFSLSTSGMGVSWIRQPSGKGLEWLAHIWWDGDNYYNPSLKSQLTISKDTSRNQVFLRIATVDTADTATYYCARRTRVNYAMDYWGQGTSVTVSS
VL: B1 VL with Y36F, I74T, R79Q
B4: 8E1-Chim (antibody, human IgG1, V domains shown)
VH: EVKLVESGGGLVQPGGSRKLSCAASGFTFSDYGMVWVRQAPGKGLEWVASISSGSSNIYYADTVKGRFTISRDDPNNTLFLQMRSLRSEDTAMYYCARNPYWGQGTTLTVSS
VL: DIVMTQSQKFMSTSVGDRVSVTCKASQNVGTNVAWYQQKPGQSPKGLIYSASHRYSGVPDRFAGSGSGTDFTLTISNVQSEDLAEYFCQQYNSYPLTFGGGTKLELKR

Target: recombinant purified cyno IL-12 p70 (cynomolgus monkey)
Experiment: cell-based or functional assay

recombinant purified cyno IL-12 p70 (cynomolgus monkey), sequence (P48095 23-328, chain 1 of 2): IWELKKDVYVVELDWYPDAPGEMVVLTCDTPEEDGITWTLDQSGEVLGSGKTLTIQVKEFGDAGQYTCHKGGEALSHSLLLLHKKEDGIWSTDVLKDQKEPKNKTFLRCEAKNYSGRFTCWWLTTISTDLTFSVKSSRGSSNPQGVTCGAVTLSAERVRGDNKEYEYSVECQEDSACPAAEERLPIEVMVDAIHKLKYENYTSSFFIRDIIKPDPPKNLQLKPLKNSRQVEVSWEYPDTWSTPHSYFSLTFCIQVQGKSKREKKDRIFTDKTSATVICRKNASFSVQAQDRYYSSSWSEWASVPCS
recombinant purified cyno IL-12 p70 (cynomolgus monkey), sequence (P48091 23-219, chain 2 of 2, further chain): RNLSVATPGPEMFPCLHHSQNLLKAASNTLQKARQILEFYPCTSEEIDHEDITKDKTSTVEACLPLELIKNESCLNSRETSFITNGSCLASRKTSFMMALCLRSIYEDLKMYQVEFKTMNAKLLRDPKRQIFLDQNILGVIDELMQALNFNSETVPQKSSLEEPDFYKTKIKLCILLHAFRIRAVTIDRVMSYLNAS

Row | Average IC50 (nM) Cyno IL-12; PHA blast IFN-gamma induction assay [nM] | Binder
1 | 0.07 | B1
2 | 0.32 | B2
3 | 0.02 | B3
4 | 0.15 | B4
